Measured values taken from patent US20140235471A1.
Read-outs that look alike come from different tables or passages of the source.

How the values were obtained:
[1] = biological target: cell-free expressed recombinant human p53 with N-terminal VSV-G epitope tag and C-terminal polyhisti (human) (UniProt P04637)
[2] = biological target: cell-free expressed recombinant human p53 with N-terminal VSV-G epitope tag and C-terminal polyhisti (human) (UniProt P04637); remark: listed apart in the source
[3] = biological target: cell-free expressed recombinant human KLHL12 with N-terminal VSV-G epitope tag and C-terminal polyhistidine and HSV epitope tags (human) (UniProt Q53G59)
[4] = biological target: cell-free expressed recombinant human p53 with N-terminal VSV-G epitope tag and C-terminal polyhisti (human) (UniProt P04637); assay: fluorescence imaging of p53 beads against blank beads, anti-VSV-Cy3 antibody
[5] = biological target: cell-free expressed recombinant human p53 with N-terminal VSV-G epitope tag and C-terminal polyhisti (human) (UniProt P04637); assay: fluorescence imaging of p53 positive against negative control blank beads
[6] = biological target: cell-free expressed recombinant human p53 with N-terminal VSV-G epitope tag and C-terminal polyhisti (human) (UniProt P04637); assay: Bead-ELISA, chemiluminescence normalised to bead fluorescence; mass-tagged beads

Chain of UniProt Q53G59 (Q53G59 other isoform, or with tags, fused parts or gaps limits assumed): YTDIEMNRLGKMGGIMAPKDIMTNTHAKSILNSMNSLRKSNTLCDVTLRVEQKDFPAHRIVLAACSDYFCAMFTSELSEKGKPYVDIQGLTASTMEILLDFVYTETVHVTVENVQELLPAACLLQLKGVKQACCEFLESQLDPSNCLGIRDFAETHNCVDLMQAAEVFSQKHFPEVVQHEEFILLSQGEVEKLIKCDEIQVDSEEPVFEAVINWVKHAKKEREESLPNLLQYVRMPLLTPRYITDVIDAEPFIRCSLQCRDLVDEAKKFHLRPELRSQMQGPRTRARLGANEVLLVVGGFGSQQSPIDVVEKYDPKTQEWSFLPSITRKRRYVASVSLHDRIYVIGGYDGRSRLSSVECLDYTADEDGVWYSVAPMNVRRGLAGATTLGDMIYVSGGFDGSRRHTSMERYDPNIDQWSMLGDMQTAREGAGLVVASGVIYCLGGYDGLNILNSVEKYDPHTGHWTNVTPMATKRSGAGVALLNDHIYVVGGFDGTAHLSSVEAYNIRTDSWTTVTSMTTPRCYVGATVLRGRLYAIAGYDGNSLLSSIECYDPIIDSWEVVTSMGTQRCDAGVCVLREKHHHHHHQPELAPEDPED

“anti-HSV tag monoclonal antibody (EMD Biosciences)” was tested, and the reduction of the binding capacity of the beads for p53 by the mass tag [1] was 50%.
In the case of “fluorescently (Cy3) labeled anti-VSV-G tag antibody (Sigma-Aldrich)”, the signal-to-noise ratio [2] is reported as 60 :1, the signal-to-noise ratio [3] is reported as 10 :1 and the signal-to-noise [4] is reported as 25 :1.
“fluorescently labeled (Alexa Fluor 594) anti-p53 antibody, clone BP53-12 (Santa Cruz Biotechnology)” was tested, and the signal-to-noise ratio [5] was > 100 :1.
In the case of “monoclonal anti-VSV-G horseradish peroxidase (HRP) conjugated antibody, Clone P5D4”, the signal-to-noise ratio [6] is reported as 42 :1 and the signal-to-noise ratio [1] is reported as 82 :1.
